Experimental data: PMC11774494

Target: 17b (CD4-induced human monoclonal antibody)
Test: flow cytometry of transfected 293T cells: staining with 10 μg/ml 17b with or without sCD4-183, detection with APC anti-human IgG F(ab')2, arithmetic mean APC fluorescence of live (propidium iodide negative) single cells; 'All titrations …
Details: sCD4-183 at 0, 0.078125, 0.3125, 1.25, 5, 20, 80 μM (row value in value_extra.sCD4_183_uM), 20 min staining at room temperature, CAUTION: 17b staining of cell-surface trimers with sCD4, mostly reports trimer opening, normalized per Env, one titration each. Higher = more 17b staining of cell-surface Env. 17b's epitope is exposed, numbering: unknown, sequence starts at 1
[1] = AUC over sCD4-183 0-80 μM, parent: 0.907, scale: area under the normalized MFI curve, log10 x-axis
[2] = sCD4-183 0 μM, parent: 0.0187, scale: normalized MFI
[3] = sCD4-183 0.078125 μM, parent: 0.0465, scale: normalized MFI
[4] = sCD4-183 0.3125 μM, parent: 0.0578, scale: normalized MFI
[5] = sCD4-183 1.25 μM, parent: 0.0973, scale: normalized MFI
[6] = sCD4-183 5 μM, parent: 0.198, scale: normalized MFI
[7] = sCD4-183 20 μM, parent: 0.585, scale: normalized MFI
[8] = sCD4-183 80 μM, parent: 1, scale: normalized MFI

“HIV-1 JR-CSF envelope glycoprotein gp160 (Env), P20871 JR-CSF_W112A” was tested, and the screen value [1] was 1.64, the screen value [2] was 0.00342 and the screen value [3] was 0.153. The screen value [4] was 0.255, the screen value [5] was 0.378 and the screen value [6] was 0.566. The screen value [7] was 0.852 and the screen value [8] was 1.

Work on “HIV-1 JR-CSF envelope glycoprotein gp160 (Env), P20871 JR-CSF_Y173A” yielded a screen value [1] of 1.72, a screen value [2] of 0.137 and a screen value [3] of 0.199. The screen value [4] was 0.265, the screen value [5] was 0.357 and the screen value [6] was 0.533. For the same substance, the screen value [7] was 0.862 and the screen value [8] was 1.

For “HIV-1 JR-CSF envelope glycoprotein gp160 (Env), P20871 JR-CSF_Y177A”, the screen value [1] was 2.87, the screen value [2] was 0.317 and the screen value [3] was 0.576. The screen value [4] was 0.719, the screen value [5] was 0.858 and the screen value [6] was 0.82. For the same substance, the screen value [7] was 0.942 and the screen value [8] was 1.

For “HIV-1 JR-CSF envelope glycoprotein gp160 (Env), P20871 JR-CSF_Y318A”, the screen value [1] was 2.53, the screen value [2] was 0.234 and the screen value [3] was 0.39. For the same substance, the screen value [4] was 0.538, the screen value [5] was 0.703 and the screen value [6] was 0.901. For the same substance, the screen value [7] was 0.923 and the screen value [8] was 1.

For “HIV-1 JR-CSF envelope glycoprotein gp160 (Env), P20871 JR-CSF_Y384A”, the screen value [2] was 0.03, the screen value [3] was 0.141 and the screen value [4] was 0.264. It also gave a screen value [5] of 0.357, a screen value [6] of 0.491 and a screen value [7] of 0.712. The screen value [8] was 1.
